The sequences below were run on F1*sub RNA substrate (template-directed ligation) (assay: fraction ligated after 30 min (ligated reads / total reads); higher = more ligase activity; sequences stand for … in GAGACCGCAACTGAAAAGTTGT…AGTTCTGCACGTAGAAGCAAAAGGC). Conditions: 42 °C.
Outline: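 Oligo-pool templates of ligase ribozyme variants were PCR-amplified, T7-transcribed and gel-purified. Ligated and unligated bands were gel-separated, reverse transcribed with barcoded primers, and MiSeq-sequenced; core bases were filtered at quality ≥20. Fraction ligated per variant was ligated reads over total reads.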

Row | Sequence | fraction ligated
1 | ATCACTTGTGTAAGACACTTTGATGGGTTGA [3d165] | 0.453
2 | TACACTTGTCTAAACACTTTGGATGGGTTGA [3d634] | 0.177
3 | TATCACTTGTCTAAGACACTTTGGATGGTTGA [2d205] | 0.588
4 | TATCACTTGTCGAAACACTTTGGTGGGTTGA [3d1920] | 0.0386
5 | TATCACTTGTTAAGACCTTTGGATGGGTTGA [3d1709] | 0.785
6 | ATCACTGTGTAAGACACTTTGGATGGGTTGA [3d108] | 0.823
7 | TCCTTGTCGTAAGACACTTTGGATGGGTTGA [3d3] | 0.687
8 | ATCCTTGTCGTAAGCACTTTGGATGGGTTGA [3d75] | 0.715
9 | TACACTTTCGTAAGACATTTGGATGGGTTGA [3d593] | 0.292
10 | ATCACTTGTCGTAAGCACTTTGGATGGGTTA [3d229] | 0.34
11 | TATCACTTGTCGTAAGCACTTTGGATGGTTA [3d2148] | 0.153
12 | ATCACTTGTCGTAAGACACTTTGGAGGGTTA [3d271] | 0.0188
13 | TACATTGTCGTAAGACACTTTGGATGGGTTG [3d565] | 0.163
14 | TACACTTGTCGTAAGACATTTGGATGGGTTGA [2d61] | 0.472
15 | TTACTTGTCGTAAACACTTTGGATGGGTTGA [3d286] | 0.00498
16 | ATCACTTGTCGTAACACTTTGGATGGGTTGA [3d199] | 0.779
17 | TATATTGTGTAAGACACTTTGGATGGGTTGA [3d761] | 0.778
18 | TATCCTTGTCGTAAGACATTTGGTGGGTTGA [3d1092] | 0.237
19 | TATACTTGTCGTAGACACTTTGGATGGTTGA [3d880] | 0.0359
20 | TATCCTTGTCGAAGACACTTTGATGGGTTGA [3d1036] | 0.781
21 | TATCACTGTGAAGACACTTTGGATGGGTTGA [3d1344] | 0.863
22 | ATCCTTGTCGTAGACACTTTGGATGGGTTGA [3d73] | 0.758
23 | TATCACTTGTCGTAAGACACTTTGTGGGTTG [3d2263] | 0.00738

Row | Sequence | fraction ligated
24 | TATCACTTGCGTAAGACCTTTGGATGGTTGA [3d1671] | 0.176
25 | TTCACTGTCGTAAGACACTTTGGATGGGTTA [3d353] | 0.195
26 | TATCACTTGTCGTAAGACATTTGAGGGTTGA [3d2216] | 0.00411
27 | TATACTTGTCGTAAGAACTTTGATGGGTTGA [3d905] | 0.794
28 | TTCACTTGTCGTAAGCACTTTGGATGGTTGA [3d459] | 0.164
29 | TATCACTTGTGTAAGCACTTTGGATGGGTTG [3d1763] | 0.851
30 | TATACTGTGTAAGACACTTTGGATGGGTTGA [3d780] | 0.8
31 | TATCATTGTCGTAAACACTTTGGTGGGTTGA [3d1232] | 0.0641
32 | TATCCTTGTGTAAACACTTTGGATGGGTTGA [3d1003] | 0.8
33 | TATCACTGTCGTAGACACTTTGGTGGGTTGA [3d1393] | 0.499
34 | TTACTTGTCGTAAGACACTTTGGATGGTTGA [3d295] | 0.323
35 | TATCACTTTCGTAAGACACTTGGTGGGTTGA [3d1563] | 0.171
36 | TTCACTTGTCGAAGACACTTTGGATGGTTGA [3d426] | 0.578
37 | TATCACTTGGTAAGACACTTGGATGGGTTGA [3d1592] | 0.795
38 | TATCACTTTCGTAAGCATTTGGATGGGTTGA [3d1531] | 0.791
39 | TATCACTTTCTAGACACTTTGGATGGGTTGA [3d1480] | 0.765
40 | TATCACTTGTCGTAAGACATTTGGAGGTTGA [3d2224] | 0.00439
41 | ATCCTTGTCGTAAGACACTTGGATGGGTTGA [3d79] | 0.733
42 | AACTTGTCGTAAGACACTTTGGATGGGTTGA [3d24] | 0.293
43 | ATCCTTGTCGTAAGACATTTGGATGGGTTGA [3d78] | 0.725
44 | TATACTGTCGTAAACACTTTGGATGGGTTGA [3d784] | 0.721
45 | TACACTTGTCGTAAGACCTTTGGATGGTTGA [3d704] | 0.358
46 | TATCACTTTCGTAAGACACTTTGGTGGTTGA [3d1575] | 0.025

Row | Sequence | fraction ligated
47 | TATCCTTTCGTAAGACACTTTGGATGGTTGA [3d981] | 0.0298
48 | TATCACTTGTCTAAGACACTTTGATGGTTGA [3d1888] | 0.0589
49 | TTCACTTGTCGTAAGACCTTTGGATGGGTTGA [2d38] | 0.793
50 | TTCACTTGTCGTAAGACACTTTGGAGGTTGA [3d501] | 0.00904
51 | TATTTGTCGTAAGACACTTTGGATGGGTTGA [3d738] | 0.762
52 | TACACTTGTCGTAAGACACTTTGGTGGGTTGA [2d64] | 0.153
53 | TATCATTGCGTAAGACACTTTGGATGGTTGA [3d1169] | 0.0894
54 | TATCACTTGTCGTAAGACCTTTGGAGGTTGA [3d2200] | 0.049
55 | TATCACTTGTCTAAGACACTTTGGGGGTTGA [3d1891] | 0.118
56 | TATCACTTGTCGTGACACTTTGGATGGGTTGA [2d221] | 0.808
57 | ATCACTTGTCGTAGACACTTTGGAGGGTTGA [3d207] | 0.211
58 | TATCACTTGTCAAGACACTTTGATGGGTTGA [3d1817] | 0.715
59 | TATCACTTGTCGTAAGACACTTTGAGGTTGA [3d2264] | 0.0133
60 | TATCATGTCGTAAGACCTTTGGATGGGTTGA [3d1131] | 0.778
61 | TATCACTTTCGTAAGACCTTTGGTGGGTTGA [3d1549] | 0.104
62 | TATCACTTGCGTAAGAACTTTGGAGGGTTGA [3d1663] | 0.0542
63 | TCACTTGTCGTAAGACACTTTGGATGGGTTG [3d23] | 0.797
64 | TATCACTTGTCGTAGACACTTTGATGGGTTGA [2d228] | 0.789
65 | TATCACTTGTCGTAGCACTTTGGATGGGTTA [3d2011] | 0.728
66 | TATCATTGTCGTAAGACACTTTGGATGGTTGA [2d125] | 0.456
67 | ATCACTTGTCGTAAGACACTTTGATGGGTTG [3d265] | 0.518
68 | TATCACTGTCGTAAGACTTTGGATGGGTTGA [3d1408] | 0.856
69 | TATCATTGTCGTAAGCACTTGGATGGGTTGA [3d1240] | 0.771

Row | Sequence | fraction ligated
70 | TATCACTTGTCGTAGACACTTTGGATGGTTA [3d2055] | 0.406
71 | TATCACTGCGTAAGACCTTTGGATGGGTTGA [3d1334] | 0.857
72 | TATCACTTGTCGAAGACATTTGGATGGGTTA [3d1955] | 0.788
73 | TATCACTTGTCGTAGACACTTTGGATGGGTT [3d2057] | 0.819
74 | TATCACTTGTCGTAAGACACTTTGATGGGTT [3d2269] | 0.017
75 | TATCACTTGTCGTAAGACTTTGGATGGGTTGA [2d244] | 0.821
76 | TATCATTGTCGTAAGAATTTGGATGGGTTGA [3d1247] | 0.796
77 | TATCACTTTCGAAGACACTTGGATGGGTTGA [3d1499] | 0.779
78 | TATCACTTTCGTAAACATTTGGATGGGTTGA [3d1521] | 0.787
79 | TATACTTGTCGTAAGACACTTTGGGGGTTGA [3d938] | 0.0526
80 | TACACTTTCGAAGACACTTTGGATGGGTTGA [3d587] | 0.0357
81 | TATACTTGTCGTAAGACACTTTGAGGGTTGA [3d934] | 0.0304
82 | TATCATTTCGTAAGCACTTTGGATGGGTTGA [3d1145] | 0.786
83 | TTCACTTGTCGTAAGAACTTTGGATGGGTTA [3d468] | 0.0936
84 | TATCACTTGTCTAAGACCTTTGGAGGGTTGA [3d1867] | 0.202
85 | TATCCTTGTCGAAGCACTTTGGATGGGTTGA [3d1031] | 0.775
86 | TTCACTTGTGTAAGACATTTGGATGGGTTGA [3d394] | 0.778
87 | TATCCTTGCGTAGACACTTTGGATGGGTTGA [3d987] | 0.799
88 | ACACTTGTCGTAAGACACTTTGGATGGGTTG [3d45] | 0.739
89 | TATCACTTGTCGTAGACATTTGGATGGGTTG [3d2034] | 0.815
90 | ATCATTGTCGTAAGAACTTTGGATGGGTTGA [3d95] | 0.802
91 | TATCACTGTCGTAAGACACTTTGGGGGTTGA [3d1453] | 0.0319
92 | TATCATTGTCGTAAGAACTTTGGATGGGTTG [3d1254] | 0.815

Row | Sequence | fraction ligated
93 | ATCACTTGTCAAGACACTTTGGATGGGTTGA [3d171] | 0.749
94 | TATCACTTGTCGTAGACATTTGATGGGTTGA [3d2029] | 0.309
95 | TTCACTTGTCGTAAGACACTTTGATGGGTTG [3d496] | 0.298
96 | TATCACTTGTCGTAAACACTTTGGTGGGTTGA [2d239] | 0.0914
97 | TATCATTGTCGTAAGACACTTGGATGGGTTA [3d1274] | 0.728
98 | TATCACTTTCGTAAGACACTTTGGGGGTTGA [3d1574] | 0.0345
99 | TATCACTTGTCGTAAAACTTTGATGGGTTGA [3d2061] | 0.781
100 | TACACTGTCGTAAGAACTTTGGATGGGTTGA [3d575] | 0.162
101 | TATCACTTTCGTAAGACCTTTGGATGGTTGA [3d1551] | 0.0784
102 | TATCATGTCGTAAGACACTTTGGATGGTTGA [3d1137] | 0.268
103 | ATCATGTCGTAAGACACTTTGGATGGGTTGA [3d86] | 0.722
104 | TATCACTTGTCGTAAGACACTTTTGGGTTGA [3d2255] | 0.0315
105 | TATCCTTGTCGAAGACACTTTGGATGGGTTGA [2d95] | 0.806
106 | TCACTTGTCGAAGACACTTTGGATGGGTTGA [3d10] | 0.748
107 | TATCACTTGTGTAAGACACTTTGTGGGTTGA [3d1794] | 0.00464
108 | TATCACTTGTCGTAAGACTTGGATGGGTTGA [3d2107] | 0.771
109 | ATCACTTGTGTAAGACACTTTGGATGGGTTA [3d169] | 0.598
110 | ATACTTGTCGTAAACACTTTGGATGGGTTGA [3d55] | 0.112
111 | TATCACTTGTGTAGACACTTTGGATGGGTTGA [2d181] | 0.871
112 | ATCACTTGTCGTAAGACACTTTGGATGGTTGA [2d22] | 0.76

— the supplement of paper PMC6755084
